Test results published in the RNAGym collection of RNA variant scans (doi:10.1101/gr.219683.116).

B1: mRNA-splicing (parent)
chain: AGUUGCUGCUGGGAGCUCCAGCACAGUGAAAUGGACAGAAGGGCAGAGCAA

Variants of: B1
Test: exon inclusion enrichment index; higher = more inclusion; WT1 exon 5 minigene, HEK293

Variant	exon inclusion enrichment index
AGUUUCUUUUGGGAGCUCCUCCACAGUGAAAUGGACAGAAGGGCAGAGCAA [G5U G8U C9U A20U G21C]	0.1
AGUUCGCGCCGGGAGCUCCAGCACAGUGAGCUGGACAGAAGGGCAGAGCAA [G5C C6G U7C U10C A30G A31C]	0.674
AGUUAUAUAUGGGAGCUCCAGCACAGUGAAAUGGACAGAAGGCCAGAGCAA [G5A C6U U7A G8U C9A G43C]	0.15
AGUUUAGGAUGGGAGCUCCAGCACAGUGAAAUGGACAGAAGGGCAGAGCAA [G5U C6A U7G C9A]	0.0473
AGUUACCACCGGGAGCUCCAGCACAGUGAAAUGGACAGAAGCCCAGAGCAA [G5A U7C G8A U10C G42C G43C]	3.5
AGUUGCUGCUGGGUACUCCAGCACAGUGAAAUGGACAGAAGGGCAGAGCAA [A14U G15A]	0.0161
AGUUAGGGAUGGGAGCUCCAGUGCAGUGAAAUGGACAGAAGGGCAGAGCAA [G5A C6G U7G C9A C22U A23G]	0.00203
AGUUAUAUAUGGGAGCUCCAGCACAGUGAAAUGGCAAGAAGGGCAGAGCAA [G5A C6U U7A G8U C9A A35C C36A]	0.0286
AGUUAGGGAUGGGACAUCCAGCACAGUGAAAUGGACAGAAGGGCAGAGCAA [G5A C6G U7G C9A G15C C16A]	0.00139
AGUUUCCACCGGGAGCUCCAGCACAGUGAAAUGGACAGAAGGGCAGAGCAA [G5U U7C G8A U10C]	1.83
AGUUCACACAAUGAGCUCCAGCACAGUGAAAUGGACAGAAGGGCAGAGCAA [G5C C6A U7C G8A U10A G11A G12U]	0.0692
AGUUCGCGCCGGGAGUACCAGCACAGUGAAAUGGACAGAAGGGCAGAGCAA [G5C C6G U7C U10C C16U U17A]	3.78
AGUUGAAGAAGGGAGCUCCAGCACAGUGAAUAGGACAGAAGGGCAGAGCAA [C6A U7A C9A U10A A31U U32A]	0.0674
AGUUCUUCUCGGGAGCUCCAGCACAGUAUAAUGGACAGAAGGGCAGAGCAA [G5C C6U G8C C9U U10C G28A A29U]	0.475
AGUUGACGACGGCUGCUCCAGCACAGUGAAAUGGACAGAAGGGCAGAGCAA [C6A U7C C9A U10C G13C A14U]	2.57
AGUUGAAGAAGGGAGCUCCAGCACAGUGAAAUUCACAGAAGGGCAGAGCAA [C6A U7A C9A U10A G33U G34C]	0.221
AGUUAUAUAUGGAAGCUCCAGCACAGUGAAAUGGACAGAAGGGCAGAGCAA [G5A C6U U7A G8U C9A G13A]	0.144
AGUUCUUCUCGGGAGCUCCAGCACAGUGAAAUGGACUAAAGGGCAGAGCAA [G5C C6U G8C C9U U10C A37U G38A]	0.713
AGUUUCUUUUAAGAGCUCCAGCACAGUGAAAUGGACAGAAGGGCAGAGCAA [G5U G8U C9U G11A G12A]	0.00894
AGUUUGCGCCGGGAGCUCCAGCACAGUGAAAUGGACAGAAGGGCAGAGCAA [G5U C6G U7C U10C]	2.34
AGUUCCUGCCGGGAGCUCCAGCACAGUGAAAUGGACAGAAGGGCAGAGCAA [G5C U10C]	1.29
AGUUGCUGCUGGGAGCCUCAGCACAGUGAAAUGGACAGAAGGGCAGAGCAA [U17C C18U]	1.34
AGUUCUUCUCGGGAGCUCACGCACAGUGAAAUGGACAGAAGGGCAGAGCAA [G5C C6U G8C C9U U10C C19A A20C]	0.813
AGUUACCACCGGGAGCUCCAGCACAGUGAAAGCGACAGAAGGGCAGAGCAA [G5A U7C G8A U10C U32G G33C]	2.16
AGUUGCUGCUGGGAGCUCCAGCACAGUGAAUUGGACAGAAGGGCAGAGCAA [A31U]	0.159
AGUUCACACAGGGAGAUCCAGCACAGUGAAAUGGACAGAAGGGCAGAGCAA [G5C C6A U7C G8A U10A C16A]	0.0973

Variant	exon inclusion enrichment index
AGUUGAAGAAGGGAGCUCCAGCACAGUGAAAUGGACAGAAGUUCAGAGCAA [C6A U7A C9A U10A G42U G43U]	1.61
AGUUGAAGAAGGGAGCUCCAGCACAGUGAAAUGGACAGAAGGGCAUAGCAA [C6A U7A C9A U10A G46U]	0.388
AGUUCUUCUCGGGAGCUCCAGCACAGUGAAACAGACAGAAGGGCAGAGCAA [G5C C6U G8C C9U U10C U32C G33A]	0.84
AGUUAUAUAGUGGAGCUCCAGCACAGUGAAAUGGACAGAAGGGCAGAGCAA [G5A C6U U7A G8U C9A U10G G11U]	0.014
AGUUGCUGCUGGGAGCUCACGCACAGUGAAAUGGACAGAAGGGCAGAGCAA [C19A A20C]	1.81
AGUUCUUCUCGGGAGCUCCAGCACACUGAAAUGGACAGAAGGGCAGAGCAA [G5C C6U G8C C9U U10C G26C]	2.29
AGUUCGCGCCGGGAGCUCCAGCACAGUGAAAGCGACAGAAGGGCAGAGCAA [G5C C6G U7C U10C U32G G33C]	3.31
AGUUGAAGAAGGGAGCUCCUUCACAGUGAAAUGGACAGAAGGGCAGAGCAA [C6A U7A C9A U10A A20U G21U]	0.376
AGUUAGGGAUGGGAGCUCCAGCACAGUGAAAUCGACAGAAGGGCAGAGCAA [G5A C6G U7G C9A G33C]	0.00196
AGAUGCUGCUGGGAGCUCCAGCACAGUGAAAUGGACAGAAGGGCAGAGCAA [U3A]	0.364
AGUUGACGACGGGAGCUCCAGCACAGUGAAAUGGACAGAAGGGCAGACCAA [C6A U7C C9A U10C G48C]	2.99
AGUUCGCGCCGGGAGCUCCAGCACAGUGAAAUGGACAGAAGGGUCGAGCAA [G5C C6G U7C U10C C44U A45C]	4.13
AGUUGAAGAAGGAGGCUCCAGCACAGUGAAAUGGACAGAAGGGCAGAGCAA [C6A U7A C9A U10A G13A A14G]	1.21
AGUUGCUGCUGGGAGCUCCAGCACAGUGAAAUGGACCAAAGGGCAGAGCAA [A37C G38A]	0.152
AGUUCUUCUCGGGAGCUCCAGUGCAGUGAAAUGGACAGAAGGGCAGAGCAA [G5C C6U G8C C9U U10C C22U A23G]	2.04
AGUUACCACCGGCGGCUCCAGCACAGUGAAAUGGACAGAAGGGCAGAGCAA [G5A U7C G8A U10C G13C A14G]	1.71
AGUUCGUACCGGGAGCUCCAGCACAGUGAAAUGGACAGAAGGGCAGAGCAA [G5C C6G G8A U10C]	2.37
AGUUCACACCAGGAGCUCCAGCACAGUGAAAUGGACAGAAGGGCAGAGCAA [G5C C6A U7C G8A U10C G11A]	1.06
AGUUCUUCUCGGGAGCUCCAGCACAGUGAAAUGCGCAGAAGGGCAGAGCAA [G5C C6U G8C C9U U10C G34C A35G]	1.38
AGUUUCUUUUGGGAGCUCCAGCACAGUGAAAAAGACAGAAGGGCAGAGCAA [G5U G8U C9U U32A G33A]	0.0443
AGUUGCUGCUGGGAGCUCCAGCACUUUGAAAUGGACAGAAGGGCAGAGCAA [A25U G26U]	0.0827
AGUUGACGACGGGAGCUCCAGCACAGUGAAAUGGACAGCUGGGCAGAGCAA [C6A U7C C9A U10C A39C A40U]	3.22
AGUUAGGGAUGGGAGCUCCAGACCAGUGAAAUGGACAGAAGGGCAGAGCAA [G5A C6G U7G C9A C22A A23C]	0.0031
AGUUACCACCGGGAGCUCCAGCACAGUGAAAUGGACAGAAGGGCACCGCAA [G5A U7C G8A U10C G46C A47C]	1.81
AGUUAGGGAUGGGAAGUCCAGCACAGUGAAAUGGACAGAAGGGCAGAGCAA [G5A C6G U7G C9A G15A C16G]	0.00097
